Measured values from patent US20250152742A1, “COMPOSITIONS AND METHODS FOR NEUROLOGICAL DISEASES” (Trames Bio, Inc., priority 2022, published 2025).

Test system: engineered chimeric receptor SEQ ID NO: 33 and its mutants (human α7-nAChR ligand binding domain / human GlyRα1 ion pore domain) in Lenti-X 293T cells
Experiment: YFP fluorescence quenching anion reporter plate reader assay (percent quench, EC50)
Assay type: cell-based
Conditions: for YFP fluorescence quenching using CNL001 (percent quench): receptor named in row; for YFP fluorescence quenching using Facinicline, 30 nM fac: ligand Facinicline 30 nM; for YFP fluorescence quenching using Facinicline, 300 nM fac: ligand Facinicline 300 nM; for YFP fluorescence quenching using Facinicline, 30 uM fac: ligand Facinicline 30 uM; for YFP fluorescence quenching using TC-6987, 1 uM tc6987: ligand TC-6987 1 uM; for YFP fluorescence quenching using TC-6987, 10 uM tc6987: ligand TC-6987 10 uM; for YFP fluorescence quenching using TC-6987, 500 uM tc6987: ligand TC-6987 500 uM; for YFP fluorescence quenching using Varenicline, 3 nM var: ligand Varenicline 3 nM; for YFP fluorescence quenching using Varenicline, 30 nM var: ligand Varenicline 30 nM; for YFP fluorescence quenching using Varenicline, 300 nM var: ligand Varenicline 300 nM; for YFP fluorescence quenching using Varenicline, 500 nM var: ligand Varenicline 500 nM; for YFP fluorescence quenching using Varenicline, 1 uM var: ligand Varenicline 1 uM
Outline: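 Lenti-X 293T cells co-expressing an anion-quenchable YFP were transiently transfected with receptor DNA, then ligand was added in NaI-substituted buffer (pH 7.2) after 30 min at 37 °C. Fluorescence was read about 2 min; percent quench = mean of last 10 s over 15 s pre-ligand baseline.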

[1] = 1 nM CNL001, first column so headed
[2] = 1 nM CNL001, second column so headed
[3] = 1 nM brd (TC-5619/Bradanicline)
[4] = 3 nM brd (TC-5619/Bradanicline)
[5] = 10 nM CNL001, first column so headed
[6] = 10 nM CNL001, second column so headed
[7] = 10 nM brd (TC-5619/Bradanicline)
[8] = 30 nM brd (TC-5619/Bradanicline)
[9] = 50 nM CNL001, first column so headed
[10] = 50 nM CNL001, second column so headed
[11] = 100 nM CNL001, first column so headed
[12] = 100 nM CNL001, second column so headed
[13] = 300 nM brd (TC-5619/Bradanicline)
[14] = 1 uM CNL001, first column so headed
[15] = 1 uM CNL001, second column so headed

B1: CODA1025: engineered receptor: R101F, L131G in SEQ ID NO: 33 (protein)
chain: MRCSPGGVWLALAASLLHVSLQGEFQRKLYKELVKNYNPLERPVANDSQPLTVYFSLSLLQIMDVDEKNQVLTTNIWLQMSWTDHYLQWNVSEYPGVKTVFFPDGQIWKPDILLYNSADERFDATFHTNVGVNSSGHCQYLPPGIFKSSCPMDLKNFPMDVQTCKLKFGSWSYGGWSLDLQMQEADISGYIPNGEWDLVGIPGKRSERFYECCKEPYPDVTFTVTMRRRMGYYLIQMYIPSLLIVILSWISFWINMDAAPARVGLGITTVLTMTTQSSGSRASLPKVSYVKAIDIWMAVCLLFVFSALLEYAAVNFVSRQHKELLRFRRKRRHHKSPMLNLFQEDEAGEGRFNFSAYGMGPACLQAKDGISVKGANNSNTTNPPPAPSKSPEEMRKLFIQRAKKIDKISRIGFPMAFLIFNMFYWIIYKIVRREDVHNQ
modifications: synthetic sequence of chimeric LGIC
YFP fluorescence quenching using CNL001 (percent quench) [1]: −18.527% | YFP fluorescence quenching using CNL001 (percent quench) [2]: −21.577% | YFP fluorescence quenching using TC-5619/Bradanicline (percent quench) [3]: −10.61% | YFP fluorescence quenching using TC-5619/Bradanicline (percent quench) [4]: 2.63% | YFP fluorescence quenching using CNL001 (percent quench) [5]: 14.063% | YFP fluorescence quenching using CNL001 (percent quench) [6]: 49.818% | YFP fluorescence quenching using TC-5619/Bradanicline (percent quench) [7]: 17.71% | YFP fluorescence quenching using TC-6683 (percent quench) (30 nM TC-6683): −1.645% | YFP fluorescence quenching using TC-5619/Bradanicline (percent quench) [8]: 68.48% | YFP fluorescence quenching using CNL001 (percent quench) [9]: 77.765% | YFP fluorescence quenching using CNL001 (percent quench) [10]: 79.23% | YFP fluorescence quenching using ABT-126 (percent quench) (50 nM abt (ABT-126)): −11.53% | YFP fluorescence quenching using CNL001 (percent quench) [11]: 80.544% | YFP fluorescence quenching using CNL001 (percent quench) [12]: 80.695% | YFP fluorescence quenching (percent quench) (100 nM CNL002): 12.48% | YFP fluorescence quenching using ABT-126 (percent quench) (100 nM abt (ABT-126)): −7.61% | YFP fluorescence quenching using AZD-0328 (percent quench) (100 nM azd0328): 6.26% | YFP fluorescence quenching using TC-6683 (percent quench) (300 nM TC-6683): 3.043% | YFP fluorescence quenching using ABT-126 (percent quench) (300 nM abt (ABT-126)): 6.55% | YFP fluorescence quenching using AZD-0328 (percent quench) (300 nM azd0328): 37.98% | YFP fluorescence quenching using TC-5619/Bradanicline (percent quench) [13]: 75.12% | YFP fluorescence quenching using CNL001 (percent quench) [14]: 81.191% | YFP fluorescence quenching using CNL001 (percent quench) [15]: 82.385% | YFP fluorescence quenching (percent quench) (1 uM CNL002): 46.04% | YFP fluorescence quenching using ABT-126 (percent quench) (1 uM abt (ABT-126)): 25.08% | YFP fluorescence quenching using TC-6683 (percent quench) (3 uM TC-6683): 0.082% | YFP fluorescence quenching (percent quench) (10 uM ach (acetylcholine)): 12.57% | YFP fluorescence quenching (percent quench) (30 uM CNL002): 39.82% | YFP fluorescence quenching using TC-6683 (percent quench) (30 uM TC-6683): 2.449% | YFP fluorescence quenching using AZD-0328 (percent quench) (30 uM azd0328): 79.31% | YFP fluorescence quenching (percent quench) (50 uM ach (acetylcholine)): −3.46% | YFP fluorescence quenching using TC-6683 (percent quench) (100 uM TC-6683): 10.437% | YFP fluorescence quenching (percent quench) (100 uM ach (acetylcholine)): 12.65% | YFP fluorescence quenching (percent quench) (300 uM ach (acetylcholine)): −6.96% | YFP fluorescence quenching (percent quench) (500 uM ach (acetylcholine)): −6.77% | YFP fluorescence quenching (percent quench) (1 mM ach (acetylcholine)): 19.42% | YFP fluorescence quenching (percent quench) (3 mM ach (acetylcholine)): 65.06% | YFP fluorescence quenching using Facinicline, 30 nM fac: −8.99 | YFP fluorescence quenching using Facinicline, 300 nM fac: 10.21 | YFP fluorescence quenching using Facinicline, 30 uM fac: 78.24 | YFP fluorescence quenching using TC-6987, 1 uM tc6987: −13.32 | YFP fluorescence quenching using TC-6987, 10 uM tc6987: 43.71 | YFP fluorescence quenching using TC-6987, 500 uM tc6987: 53.98 | YFP fluorescence quenching using Varenicline, 3 nM var (first column): 48.074 | YFP fluorescence quenching using Varenicline, 3 nM var (second column): 60.978 | YFP fluorescence quenching using Varenicline, 30 nM var (first column): 70.023 | YFP fluorescence quenching using Varenicline, 30 nM var (second column): 69.433 | YFP fluorescence quenching using Varenicline, 300 nM var (first column): 78.989 | YFP fluorescence quenching using Varenicline, 300 nM var (second column): 79.21 | YFP fluorescence quenching using Varenicline, 500 nM var (first column): 79.212 | YFP fluorescence quenching using Varenicline, 500 nM var (second column): 79.771 | YFP fluorescence quenching using Varenicline, 1 uM var (first column): 79.538 | YFP fluorescence quenching using Varenicline, 1 uM var (second column): 80.577

B2: CODA1027: engineered receptor: R101F, L131D in SEQ ID NO: 33 (protein)
chain: MRCSPGGVWLALAASLLHVSLQGEFQRKLYKELVKNYNPLERPVANDSQPLTVYFSLSLLQIMDVDEKNQVLTTNIWLQMSWTDHYLQWNVSEYPGVKTVFFPDGQIWKPDILLYNSADERFDATFHTNVDVNSSGHCQYLPPGIFKSSCPMDLKNFPMDVQTCKLKFGSWSYGGWSLDLQMQEADISGYIPNGEWDLVGIPGKRSERFYECCKEPYPDVTFTVTMRRRMGYYLIQMYIPSLLIVILSWISFWINMDAAPARVGLGITTVLTMTTQSSGSRASLPKVSYVKAIDIWMAVCLLFVFSALLEYAAVNFVSRQHKELLRFRRKRRHHKSPMLNLFQEDEAGEGRFNFSAYGMGPACLQAKDGISVKGANNSNTTNPPPAPSKSPEEMRKLFIQRAKKIDKISRIGFPMAFLIFNMFYWIIYKIVRREDVHNQ
modifications: synthetic sequence of chimeric LGIC
YFP fluorescence quenching using CNL001 (percent quench) [1]: 24.049% | YFP fluorescence quenching using CNL001 (percent quench) [2]: 36.755% | YFP fluorescence quenching using TC-5619/Bradanicline (percent quench) [3]: −10.07% | YFP fluorescence quenching using TC-5619/Bradanicline (percent quench) [4]: −0.8% | YFP fluorescence quenching using CNL001 (percent quench) [5]: 52.927% | YFP fluorescence quenching using CNL001 (percent quench) [6]: 61.449% | YFP fluorescence quenching using TC-5619/Bradanicline (percent quench) [7]: 1.74% | YFP fluorescence quenching using TC-6683 (percent quench) (30 nM TC-6683): 1.189% | YFP fluorescence quenching using TC-5619/Bradanicline (percent quench) [8]: 53.95% | YFP fluorescence quenching using CNL001 (percent quench) [9]: 67.308% | YFP fluorescence quenching using CNL001 (percent quench) [10]: 68.77% | YFP fluorescence quenching using ABT-126 (percent quench) (50 nM abt (ABT-126)): −11.89% | YFP fluorescence quenching using CNL001 (percent quench) [11]: 69.049% | YFP fluorescence quenching using CNL001 (percent quench) [12]: 71.613% | YFP fluorescence quenching (percent quench) (100 nM CNL002): 7.75% | YFP fluorescence quenching using ABT-126 (percent quench) (100 nM abt (ABT-126)): −16.07% | YFP fluorescence quenching using AZD-0328 (percent quench) (100 nM azd0328): −4.76% | YFP fluorescence quenching using TC-6683 (percent quench) (300 nM TC-6683): 0.939% | YFP fluorescence quenching using ABT-126 (percent quench) (300 nM abt (ABT-126)): −11.21% | YFP fluorescence quenching using AZD-0328 (percent quench) (300 nM azd0328): −7.52% | YFP fluorescence quenching using TC-5619/Bradanicline (percent quench) [13]: 76.74% | YFP fluorescence quenching using CNL001 (percent quench) [14]: 71.811% | YFP fluorescence quenching using CNL001 (percent quench) [15]: 69.907% | YFP fluorescence quenching (percent quench) (1 uM CNL002): 61.97% | YFP fluorescence quenching using ABT-126 (percent quench) (1 uM abt (ABT-126)): −9.38% | YFP fluorescence quenching using TC-6683 (percent quench) (3 uM TC-6683): 1.327% | YFP fluorescence quenching (percent quench) (10 uM ach (acetylcholine)): −1.62% | YFP fluorescence quenching (percent quench) (30 uM CNL002): 65.77% | YFP fluorescence quenching using TC-6683 (percent quench) (30 uM TC-6683): −0.845% | YFP fluorescence quenching using AZD-0328 (percent quench) (30 uM azd0328): 74.9% | YFP fluorescence quenching (percent quench) (50 uM ach (acetylcholine)): −1.6% | YFP fluorescence quenching using TC-6683 (percent quench) (100 uM TC-6683): −3.136% | YFP fluorescence quenching (percent quench) (100 uM ach (acetylcholine)): −2.62% | YFP fluorescence quenching (percent quench) (300 uM ach (acetylcholine)): −6.12% | YFP fluorescence quenching (percent quench) (500 uM ach (acetylcholine)): −7.71% | YFP fluorescence quenching (percent quench) (1 mM ach (acetylcholine)): −5.73% | YFP fluorescence quenching (percent quench) (3 mM ach (acetylcholine)): 33.69% | YFP fluorescence quenching using Facinicline, 30 nM fac: −10.05 | YFP fluorescence quenching using Facinicline, 300 nM fac: −12.54 | YFP fluorescence quenching using Facinicline, 30 uM fac: 70.96 | YFP fluorescence quenching using TC-6987, 1 uM tc6987: 0.88 | YFP fluorescence quenching using TC-6987, 10 uM tc6987: 56.27 | YFP fluorescence quenching using TC-6987, 500 uM tc6987: 71.3 | YFP fluorescence quenching using Varenicline, 3 nM var (first column): −3.367 | YFP fluorescence quenching using Varenicline, 3 nM var (second column): −0.431 | YFP fluorescence quenching using Varenicline, 30 nM var (first column): −0.761 | YFP fluorescence quenching using Varenicline, 30 nM var (second column): 2.989 | YFP fluorescence quenching using Varenicline, 300 nM var (first column): 2.966 | YFP fluorescence quenching using Varenicline, 300 nM var (second column): 10.211 | YFP fluorescence quenching using Varenicline, 500 nM var (first column): 15.278 | YFP fluorescence quenching using Varenicline, 500 nM var (second column): 20.84 | YFP fluorescence quenching using Varenicline, 1 uM var (first column): 37.104 | YFP fluorescence quenching using Varenicline, 1 uM var (second column): 42.439
